Measured values reported in patent US12551583B2, “Radiolabeled ligands for targeted PET/SPECT imaging and methods of their use” (MEMORIAL SLOAN KETTERING CANCER CENTER, priority 2016, dated 2026).

What was measured:
[1] = tested on: 4T1 orthotopic tumor-bearing BALB/c mice; assay: in vivo; conditions: mouse, iv, 4 h
Method: (§1) 4T1 orthotopic BALB/c mouse model. The cells were removed from the flasks, concentrated, and resuspended in minimal media for cell counting. The cells were then diluted to contain approximately 1 million cells in 30 μL of media (for orthotopic allografts). Following an MSKCC Institutional Animal Care and Use Committee approved protocol, 8-10 week old BALB/c mice (Charles River Laboratories, Wilmington, MA) were surgically implanted with one million 4T1 cancer cells into the first or the last mammary fat pad of the right side of the animal using aseptic surgical techniques and sterile staple closures while the mice were under anesthetic. Additionally, mice were given injections of meloxicam (24 h pain killer) in the scruff and bupivacaine intradermally prior to surgical incisions. One day post surgery, the mice were again given meloxicam and checked to ensure that the closure was healing. Two and three days post surgery, the mice were checked to ensure that the animals were healthy and recovering well from the surgery. Five to seven days post surgery, the staples were removed. Five to nine days post surgery, the mice were injected with 50-75 μCi (0.9-0.4 nmol) of the respective radiopharmaceutical for in vivo biodistribution or 500-600 μCi (9-11 nmol) for in vivo imaging. The mice receiving ^64Cu-NOTA-pHLIP were sacrificed at 1, 2, 4, 12, 24, 36, and 48 h; the mice receiving [^18F]—AlF-NOTA-pHLIP were sacrificed at 0.5, 1, 2, 4, 6 and 8 h. The 4T1 tumors in this study were purposely used 5-9 days after inoculation to ensure lower tumoral pH. Animal models. Animal studies were conducted according to MSKCC IACUC-approved animal protocol. 4T1 (orthotopic breast cancer allografts of 1×10^6 cells surgically implanted in the mammary fat pad) and B16-F10 (orthotopic melanoma allografts of 1×10^5 cells injected intradermally on the shoulder) tumors were orthotopically inoculated in media in female BALB/c and C57Bl/6 mice (Charles River Laboratories (CRL)), respectively. Additionally, PC3 (3×10^6 cells) or LNCaP (3-6×10^6 cells) tumors were subcutaneously xenografted on the shoulder of athymic nude male mice (CRL). Mice were used once tumor volumes were approximately 90-300 mm^3. In vivo animal PET imaging and biodistribution. Mice were injected with radiolabeled NOTA-pHLIP derivatives i.v. (500-700 μCi/mouse for PET or SPECT imaging studies and 25-100 μCi/mouse for biodistribution studies). All injections were less than 200 μL with <10% EtOH in sterile PBS. PET images were obtained with the mice under anesthesia in an Inveon PET-CT or microPET Focus 120 (Siemens) at 0.5-48 h p.i. All images were analyzed using ASIPro VM (Concorde Microsystems). SPECT images were obtained with the mice under anesthesia in a NanoSPECT/CT Plus at 4-24 h p.i. All SPECT images were reconstructed using HiSPECT and analyzed using InVivoScope. Dissections for ex vivo biodistribution were performed on mice after CO2 asphyxiation or cervical dislocation while anesthetized at reported time points. Weight of the syringe prior to injection and after injection was used to determine the mass of injectate. Activity of the syringe prior to injection and after injection was used to determine the percent of injectate administered. The mass injected was corrected by the percent of radioactivity injected. Four to five aliquots (10 μL) were weighed and counted as internal standards for each study. All of the collected organs were counted using an automatic gamma counter (Wizard 3″, PerkinElmer, Waltham, MA). The total injected dose was found as the mass injected dose×fraction radioactivity injected×internal standard average counts/g. The percent injected dose (% ID) was determined as the counts for the tissue×100/total injected dose. The % ID/g was calculated as the % ID/tissue weight. The average and standard deviation of the % ID and % ID/g was determined using normal methods (n−1) for each set of mice.

in vivo = conditions: female, BALB/c, mouse, iv, total radioactivity; for tissue uptake at 24 h: 50 uCi, 4T1 tumoral uptake; for tissue uptake at 4 h: biodistribution, Tumor (4T1 tumoral uptake)
Method: as §1

SMILES: CC(C)C[C@@H](NC(=O)[C@@H](CCC(=O)O)NC(=O)[C@@H](CC(C)C)NC(=O)[C@@H](CC(C)C)NC(=O)[C@@H](CC(C)C)NC(=O)[C@H](NC(=O)[C@@H](CCC(=O)O)NC(=O)[C@H](NC(=O)[C@H]1CCCN1C(=O)[C@@H](Cc1ccccc1)NC(=O)[C@@H](CC(C)C)NC(=O)[C@@H](Cc1c[nH]c2ccccc12)NC(=O)[C@@H](CCC(=O)O)NC(=O)[C@@H](CC(C)C)NC(=O)[C@@H](Cc1ccc(O)cc1)NC(=O)[C@@H](CCCNC(=N)N)NC(=O)[C@@H](C)NC(=O)[C@@H](Cc1c[nH]c2ccccc12)NC(=O)[C@H]1CCCN1C(=O)[C@@H](CC(N)=O)NC(=O)[C@@H](CCC(N)=O)NC(=O)[C@@H](CCC(=O)O)NC(=O)[C@@H](CCC(=O)O)NC(=O)[C@@H](CSC1CC(=O)N(CCNC(=O)CN2CCN(CC(=O)O)CCN(CC(=O)O)CC2)C1=O)NC(=O)[C@@H](C)N)[C@H](C)O)[C@H](C)O)C(=O)O (single isomer, unassigned) [^64Cu-NO2A-cysVar7, metal not drawn]
- biodistribution, Blood [1]: 2.31 ± 0.18 % ID/g
- biodistribution, Bone [1]: 1.57 ± 0.18 % ID/g
- biodistribution, Brain [1]: 0.25 ± 0.02 % ID/g
- biodistribution, Heart [1]: 2.68 ± 0.33 % ID/g
- biodistribution, Kidneys [1]: 95.5 ± 11.9 % ID/g
- biodistribution, L. intestine [1]: 8.19 ± 0.85 % ID/g
- biodistribution, Liver [1]: 15.6 ± 1.58 % ID/g
- biodistribution, Lungs [1]: 4.21 ± 0.23 % ID/g
- biodistribution, Muscle [1]: 0.64 ± 0.07 % ID/g
- biodistribution, Pancreas [1]: 1.84 ± 0.10 % ID/g
- biodistribution, S. intestine [1]: 6.37 ± 0.11 % ID/g
- biodistribution, Skin [1]: 2.59 ± 0.05 % ID/g
- biodistribution, Spleen [1]: 3.31 ± 0.24 % ID/g
- biodistribution, Stomach [1]: 3.33 ± 0.31 % ID/g
- biodistribution, Tumor (4T1 tumoral uptake) [1]: 9.07 ± 1.81 % ID/g

SMILES: CC(C)C[C@@H](NC(=O)[C@@H](CC(C)C)NC(=O)[C@@H](CC(=O)O)NC(=O)[C@@H](CC(C)C)NC(=O)[C@@H](CC(C)C)NC(=O)[C@@H](CC(C)C)NC(=O)[C@H](NC(=O)[C@@H](CC(=O)O)NC(=O)[C@H](NC(=O)[C@H]1CCCN1C(=O)[C@@H](Cc1ccccc1)NC(=O)[C@@H](CC(C)C)NC(=O)[C@@H](CC(C)C)NC(=O)[C@@H](CC(=O)O)NC(=O)[C@@H](CC(C)C)NC(=O)[C@@H](Cc1ccc(O)cc1)NC(=O)[C@@H](C)NC(=O)[C@@H](CCCNC(=N)N)NC(=O)[C@@H](Cc1c[nH]c2ccccc12)NC(=O)[C@H]1CCCN1C(=O)[C@@H](CC(N)=O)NC(=O)[C@@H](CCC(N)=O)NC(=O)[C@@H](CC(=O)O)NC(=O)[C@@H](CC(=O)O)NC(=O)[C@@H](CS)NC(=O)[C@@H](C)NC(=S)Nc1ccc(CC2CN(CC(=O)O)CCN(CC(=O)O)CCN2CC(=O)O)cc1)[C@H](C)O)[C@H](C)O)C(=O)N[C@H](Cc1c[nH]c2ccccc12)C(=O)O (single isomer, unassigned) [^64Cu-NOTA-Var3, metal not drawn]
- biodistribution, Blood [1]: 1.371 ± 0.244 % ID/g
- biodistribution, Bone [1]: 0.339 ± 0.018 % ID/g
- biodistribution, Brain [1]: 0.063 ± 0.011 % ID/g
- biodistribution, Heart [1]: 0.49 ± 0.05 % ID/g
- biodistribution, Kidneys [1]: 7.165 ± 1.126 % ID/g
- biodistribution, L. intestine [1]: 7.45 ± 2.73 % ID/g
- biodistribution, Liver [1]: 1.034 ± 0.150 % ID/g
- biodistribution, Lungs [1]: 1.420 ± 0.117 % ID/g
- biodistribution, Muscle [1]: 0.171 ± 0.017 % ID/g
- biodistribution, Pancreas [1]: 0.279 ± 0.041 % ID/g
- biodistribution, S. intestine [1]: 0.320 ± 0.042 % ID/g
- biodistribution, Skin [1]: 0.775 ± 0.102 % ID/g
- biodistribution, Spleen [1]: 0.340 ± 0.032 % ID/g
- biodistribution, Stomach [1]: 0.194 ± 0.050 % ID/g
- biodistribution, Tumor (4T1 tumoral uptake) [1]: 0.649 ± 0.091 % ID/g

SMILES: CC(C)C[C@@H](NC(=O)[C@@H](CC(C)C)NC(=O)[C@@H](CC(=O)O)NC(=O)[C@@H](CC(C)C)NC(=O)[C@@H](CC(C)C)NC(=O)[C@@H](CC(C)C)NC(=O)[C@H](NC(=O)[C@@H](CC(=O)O)NC(=O)[C@H](NC(=O)[C@H]1CCCN1C(=O)[C@@H](Cc1ccccc1)NC(=O)[C@@H](CC(C)C)NC(=O)[C@@H](CC(C)C)NC(=O)[C@@H](CC(=O)O)NC(=O)[C@@H](CC(C)C)NC(=O)[C@@H](Cc1ccc(O)cc1)NC(=O)[C@@H](C)NC(=O)[C@@H](CCCNC(=N)N)NC(=O)[C@@H](Cc1c[nH]c2ccccc12)NC(=O)[C@H]1CCCN1C(=O)[C@@H](CC(N)=O)NC(=O)[C@@H](CCC(N)=O)NC(=O)[C@@H](CC(=O)O)NC(=O)[C@@H](CC(=O)O)NC(=O)[C@@H](CS)NC(=O)[C@@H](C)NC(=S)Nc1ccc(CC2CN(CC(=O)O)CCN(CC(=O)O)CCN2CC(=O)O)cc1)[C@H](C)O)[C@H](C)O)C(=O)N[C@H](Cc1c[nH]c2ccccc12)C(=O)O (single isomer, unassigned) [^67Ga-NOTA-Var3, metal not drawn]
- tissue uptake at 24 h (in vivo): 2.93 ± 0.11 %ID/g
- tissue uptake at 4 h (in vivo): 2.05 ± 0.17 %ID/g

SMILES: CC(C)C[C@@H](NC(=O)[C@@H](CC(C)C)NC(=O)[C@@H](CC(=O)O)NC(=O)[C@@H](CC(C)C)NC(=O)[C@@H](CC(C)C)NC(=O)[C@@H](CC(C)C)NC(=O)[C@H](NC(=O)[C@@H](CC(=O)O)NC(=O)[C@H](NC(=O)[C@H]1CCCN1C(=O)[C@@H](Cc1ccccc1)NC(=O)[C@@H](CC(C)C)NC(=O)[C@@H](CC(C)C)NC(=O)[C@@H](CC(=O)O)NC(=O)[C@@H](CC(C)C)NC(=O)[C@@H](Cc1ccc(O)cc1)NC(=O)[C@@H](C)NC(=O)[C@@H](CCCNC(=N)N)NC(=O)[C@@H](Cc1c[nH]c2ccccc12)NC(=O)[C@H]1CCCN1C(=O)[C@@H](CC(N)=O)NC(=O)[C@@H](CCC(N)=O)NC(=O)[C@@H](CC(=O)O)NC(=O)[C@@H](CC(=O)O)NC(=O)[C@@H](CSC1CC(=O)N(CCNC(=O)CN2CCN(CC(=O)O)CCN(CC(=O)O)CC2)C1=O)NC(=O)[C@@H](C)N)[C@H](C)O)[C@H](C)O)C(=O)N[C@H](Cc1c[nH]c2ccccc12)C(=O)O (single isomer, unassigned) [^68Ga-NO2A-cysVar3, metal not drawn]
- biodistribution, Tumor (4T1 tumoral uptake) ([1]; female, BALB/c): 6±2 % ID/g

SMILES: CC(C)C[C@@H](NC(=O)[C@@H](Cc1ccc(O)cc1)NC(=O)[C@@H](C)NC(=O)[C@@H](CCCNC(=N)N)NC(=O)[C@@H](Cc1c[nH]c2ccccc12)NC(=O)[C@H]1CCCN1C(=O)[C@@H](CC(N)=O)NC(=O)[C@@H](CCC(N)=O)NC(=O)[C@@H](CC(=O)O)NC(=O)[C@@H](CC(=O)O)NC(=O)[C@@H](C)N)C(=O)N[C@H](CC(=O)O)C(=O)N[C@H](CC(C)C)C(=O)N[C@H](CC(C)C)C(=O)N[C@H](Cc1ccccc1)C(=O)N1CCC[C@@H]1C(=O)N[C@@H](C(=O)N[C@H](CC(=O)O)C(=O)N[C@@H](C(=O)N[C@H](CC(C)C)C(=O)N[C@H](CC(C)C)C(=O)N[C@H](CC(C)C)C(=O)N[C@H](CC(=O)O)C(=O)N[C@H](CC(C)C)C(=O)N[C@H](CC(C)C)C(=O)N[C@H](Cc1c[nH]c2ccccc12)C(=O)N[C@H](CSC1CC(=O)N(CCNC(=O)CN2CCN(CC(=O)O)CCN(CC(=O)O)CC2)C1=O)C(=O)NCC(=O)O)[C@H](C)O)[C@H](C)O (some centres unmarked) [^67Ga-NO2A-C^27Var3, metal not drawn]
- tissue uptake at 24 h (in vivo): 23 ± 5 %ID/g
- tissue uptake at 4 h (in vivo): 20.5 ± 1 %ID/g
